The results in this text go back to the Human Domainome abundance scans (Beltran et al. 2025).

± gives the uncertainty stated by the source.

B1: Zinc finger protein ZIC 2, residues 250 to 295; numbered along this chain, O95409 (parent)
chain: QCIKQELICKWIDPEQLSNPKKSCNKTFSTMHELVTHVSVEHVGGP

In this series the parent is B1. In words: abundance fitness (aPCA) (normalised: wild type 0, dead -1); higher = more abundant; growth selection in yeast, the domain comes from the species named. Particulars: Homo sapiens.
QCIKQELICKWIDPEQLSNPKKSCNKTFSTAHELVTHVSVEHVGGP [M31A]: the abundance fitness worked out at 0.12 ± 0.085.
The figure for QCIKQELICKWIDPEQLSNPKKSCNKTFSTTHELVTHVSVEHVGGP [M31T] is 0.042 ± 0.099; for QCIKQELICKWIDPEQLSNPKKSCNKTFSTQHELVTHVSVEHVGGP [M31Q] it is 0.438 ± 0.095.
As for QCIKQELICKWIDPEQLSNPKKSCNKTFSTGHELVTHVSVEHVGGP [M31G], the abundance fitness turned out to be 0.079 ± 0.083.
QCIKQELICKWIDPEQLSNPKKSCNKTFSTIHELVTHVSVEHVGGP [M31I]: the abundance fitness amounted to 0.318 ± 0.1.
Take QCIKQELICKWIDPEQLSNPKKSCNKTFSTHHELVTHVSVEHVGGP [M31H]: the abundance fitness stood at 0.436 ± 0.13.
Under QCIKQELICKWIDPEQLSNPKKSCNKTFSTVHELVTHVSVEHVGGP [M31V] stands -0.363 ± 0.086; under QCIKQELICKWIDPEQLSNPKKSCNKTFSTEHELVTHVSVEHVGGP [M31E], 0.373 ± 0.089.
Under QCIKQELICKWIDPEQLSNPKKSCNKTFSTNHELVTHVSVEHVGGP [M31N] stands 0.622 ± 0.11; under QCIKQELICKWIDPEQLSNPKKSCNKTFSTLHELVTHVSVEHVGGP [M31L], -0.377 ± 0.088; under QCIKQELICKWIDPEQLSNPKKSCNKTFSTWHELVTHVSVEHVGGP [M31W], -0.602 ± 0.096.
Turning to QCIKQELICKWIDPEQLSNPKKSCNKTFSTPHELVTHVSVEHVGGP [M31P], the abundance fitness was -0.079 ± 0.098.
As to QCIKQELICKWIDPEQLSNPKKSCNKTFSTDHELVTHVSVEHVGGP [M31D], the abundance fitness came to 0.334 ± 0.098.
Under QCIKQELICKWIDPEQLSNPKKSCNKTFSTCHELVTHVSVEHVGGP [M31C] stands -0.569 ± 0.12.
Under QCIKQELICKWIDPEQLSNPKKSCNKTFSTKHELVTHVSVEHVGGP [M31K] stands 0.518 ± 0.097; under QCIKQELICKWIDPEQLSNPKKSCNKTFSTSHELVTHVSVEHVGGP [M31S], 0.321 ± 0.089; under QCIKQELICKWIDPEQLSNPKKSCNKHFSTMHELVTHVSVEHVGGP [T27H], -0.449 ± 0.14.
In the case of QCIKQELICKWIDPEQLSNPKKSCNKYFSTMHELVTHVSVEHVGGP [T27Y], the abundance fitness was -0.818 ± 0.17.
Under QCIKQELICKWIDPEQLSNPKKSCNKDFSTMHELVTHVSVEHVGGP [T27D] stands 0.072 ± 0.11.
Turning to QCIKQELICKWIDPEQLSNPKKSCNKRFSTMHELVTHVSVEHVGGP [T27R], the abundance fitness was -0.025 ± 0.084.
Under QCIKQELICKWIDPEQLSNPKKSCNKEFSTMHELVTHVSVEHVGGP [T27E] stands 0.188 ± 0.097.
The figure for QCIKQELICKWIDPEQLSNPKKSCNKQFSTMHELVTHVSVEHVGGP [T27Q] is 0.119 ± 0.098; for QCIKQELICKWIDPEQLSNPKKSCNKGFSTMHELVTHVSVEHVGGP [T27G] it is 0.104 ± 0.083; for QCIKQELICKWIDPEQLSNPKKSCNKWFSTMHELVTHVSVEHVGGP [T27W] it is -0.296 ± 0.089.
The figure for QCIKQELICKWIDPEQLSNPKKSCNKFFSTMHELVTHVSVEHVGGP [T27F] is 0.174 ± 0.11; for QCIKQELICKWIDPEQLSNPKKSCNKIFSTMHELVTHVSVEHVGGP [T27I] it is 0.381 ± 0.11.
In the case of QCIKQELICKWIDPEQLSNPKKSCNKCFSTMHELVTHVSVEHVGGP [T27C], the abundance fitness was -0.17 ± 0.099.
Under QCIKQELICKWIDPEQLSNPKKSCNKVFSTMHELVTHVSVEHVGGP [T27V] stands 0.06 ± 0.088; under QCIKQELICKWIDPEQLSNPKKSCNKSFSTMHELVTHVSVEHVGGP [T27S], -0.001 ± 0.087; under QCIKQELICKWIDPEQLSNPKKSCNKAFSTMHELVTHVSVEHVGGP [T27A], -0.116 ± 0.089.
The figure for QCIKQELICKWIDPEQLSNPKKSCNKNFSTMHELVTHVSVEHVGGP [T27N] is 0.001 ± 0.11; for QCIKQELICKWIDPEQLSNPKKSCNKMFSTMHELVTHVSVEHVGGP [T27M] it is 0.182 ± 0.094.
For QCIKQELICKWIDPEQLSNPKKSCNKLFSTMHELVTHVSVEHVGGP [T27L], the abundance fitness is -0.19 ± 0.089.
For QCIKQELICKWIDPEQLSNPKKSCNKTFGTMHELVTHVSVEHVGGP [S29G], the abundance fitness stood at 0.03 ± 0.084.
Under QCIKQELICKWIDPEQLSNPKKSCNKTFMTMHELVTHVSVEHVGGP [S29M] stands -0.077 ± 0.11.
The figure for QCIKQELICKWIDPEQLSNPKKSCNKTFQTMHELVTHVSVEHVGGP [S29Q] is 0.114 ± 0.11; for QCIKQELICKWIDPEQLSNPKKSCNKTFDTMHELVTHVSVEHVGGP [S29D] it is 0.352 ± 0.1; for QCIKQELICKWIDPEQLSNPKKSCNKTFCTMHELVTHVSVEHVGGP [S29C] it is -0.337 ± 0.094.
The figure for QCIKQELICKWIDPEQLSNPKKSCNKTFLTMHELVTHVSVEHVGGP [S29L] is 0.07 ± 0.092; for QCIKQELICKWIDPEQLSNPKKSCNKTFETMHELVTHVSVEHVGGP [S29E] it is 0.425 ± 0.096.
In the case of QCIKQELICKWIDPEQLSNPKKSCNKTFWTMHELVTHVSVEHVGGP [S29W], the abundance fitness was -0.386 ± 0.095.
The figure for QCIKQELICKWIDPEQLSNPKKSCNKTFITMHELVTHVSVEHVGGP [S29I] is -0.356 ± 0.14; for QCIKQELICKWIDPEQLSNPKKSCNKTFNTMHELVTHVSVEHVGGP [S29N] it is -0.213 ± 0.13.
Under QCIKQELICKWIDPEQLSNPKKSCNKTFTTMHELVTHVSVEHVGGP [S29T] stands 0.551 ± 0.11; under QCIKQELICKWIDPEQLSNPKKSCNKTFFTMHELVTHVSVEHVGGP [S29F], -0.215 ± 0.1; under QCIKQELICKWIDPEQLSNPKKSCNKTFRTMHELVTHVSVEHVGGP [S29R], 0.236 ± 0.084.
Under QCIKQELICKWIDPEQLSNPKKSCNKTFVTMHELVTHVSVEHVGGP [S29V] stands -0.167 ± 0.091; under QCIKQELICKWIDPEQLSNPKKSCNKTFKTMHELVTHVSVEHVGGP [S29K], 0.03 ± 0.11.
Consider QCIKQELICKWIDPEQLSNPKKSCNKTFATMHELVTHVSVEHVGGP [S29A], for which the abundance fitness was -0.086 ± 0.093.
The figure for QCIKQELICKWIDPEQLSNPKKSCNKTFHTMHELVTHVSVEHVGGP [S29H] is 0.077 ± 0.12; for QCIKQELICKWIDPEQLSNPKKSCNKTFPTMHELVTHVSVEHVGGP [S29P] it is 0.209 ± 0.1.
Under QCIKQELICKWIDPEQLSNPKKSCNKTFSWMHELVTHVSVEHVGGP [T30W] stands -0.661 ± 0.12; under QCIKQELICKWIDPEQLSNPKKSCNKTFSCMHELVTHVSVEHVGGP [T30C], -0.999 ± 0.16; under QCIKQELICKWIDPEQLSNPKKSCNKTFSVMHELVTHVSVEHVGGP [T30V], -0.429 ± 0.099.
The figure for QCIKQELICKWIDPEQLSNPKKSCNKTFSYMHELVTHVSVEHVGGP [T30Y] is -0.96 ± 0.18; for QCIKQELICKWIDPEQLSNPKKSCNKTFSLMHELVTHVSVEHVGGP [T30L] it is -0.802 ± 0.11.
